Test results from patent EP3741773A1.

Molecular target: meditope-enabled trastuzumab Fab fragment
Test: SPR

Sequence of meditope-enabled trastuzumab Fab fragment (chain, as listed by the source, chain 1 of 2): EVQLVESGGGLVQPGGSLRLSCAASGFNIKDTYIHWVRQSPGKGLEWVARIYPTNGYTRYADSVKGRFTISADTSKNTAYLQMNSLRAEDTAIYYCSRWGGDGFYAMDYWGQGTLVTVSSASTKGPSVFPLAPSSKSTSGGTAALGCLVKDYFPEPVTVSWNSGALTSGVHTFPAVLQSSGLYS
Sequence of meditope-enabled trastuzumab Fab fragment (chain, as listed by the source, chain 2 of 2): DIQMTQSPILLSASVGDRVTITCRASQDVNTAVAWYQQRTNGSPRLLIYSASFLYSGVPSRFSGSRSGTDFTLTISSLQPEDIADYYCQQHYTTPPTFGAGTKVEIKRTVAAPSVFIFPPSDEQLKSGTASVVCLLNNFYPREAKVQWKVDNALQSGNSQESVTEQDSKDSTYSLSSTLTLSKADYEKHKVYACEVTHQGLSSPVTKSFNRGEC

Binder: CQFDLSTRRLKC (modifications not checked) [cQFD meditope]
- Kd: 1000 nM
